{"source": "patent US20110301073", "test_in_all_cases": "cell_activity", "key": {"[1]": {"test_system": "TALEN 101234 (HD half repeat) (synthetic (Xanthomonas TALE))", "settings": "paired with 101231"}, "[2]": {"test_system": "TALEN 101235 (HD half repeat) (synthetic (Xanthomonas TALE))", "settings": "paired with 101238"}, "[3]": {"test_system": "TALEN 101236 (HD half repeat) (synthetic (Xanthomonas TALE))", "settings": "paired with 101238; 2.5% with 101237"}, "[4]": {"test_system": "TALEN 101239 (HD half repeat) (synthetic (Xanthomonas TALE))", "settings": "paired with 101167; 11.2% with 101240"}, "[5]": {"test_system": "TALEN 101151 (synthetic (Xanthomonas TALE))", "settings": "paired with 101233"}, "[6]": {"test_system": "TALEN 101238 (HD half repeat) (synthetic (Xanthomonas TALE))", "settings": "paired with 101236; 8.1% with 101235"}, "[7]": {"test_system": "TALEN 101237 (NK half repeat) (synthetic (Xanthomonas TALE))", "settings": "paired with 101236"}, "[8]": {"test_system": "TALEN 101167 (synthetic (Xanthomonas TALE))", "settings": "paired with 101239; 5.3% with 101166"}, "[9]": {"test_system": "TALEN 101240 (HD half repeat) (synthetic (Xanthomonas TALE))", "settings": "paired with 101239; 10.7% with 101166"}, "[10]": {"test_system": "TALEN 101166 (synthetic (Xanthomonas TALE))", "settings": "paired with 101240; 5.3% with 101167"}, "[11]": {"test_system": "TALEN 101233 (NI half repeat) (synthetic (Xanthomonas TALE))", "settings": "paired with 101151"}, "[12]": {"test_system": "TALEN 101230 (HD half repeat) (synthetic (Xanthomonas TALE))", "settings": "paired with 101156"}, "[13]": {"test_system": "TALEN 101231 (NI half repeat) (synthetic (Xanthomonas TALE))", "settings": "paired with 101234"}, "[14]": {"test_system": "TALEN 101156 (synthetic (Xanthomonas TALE))", "settings": "paired with 101230"}, "[15]": {"test_system": "C1 TALEN 101380 (synthetic (Xanthomonas TALE))", "settings": "paired with 101381"}, "[16]": {"test_system": "C1 TALEN 101371 (synthetic (Xanthomonas TALE))", "settings": "paired with 101370; site given 3'-5', reversed here"}, "[17]": {"test_system": "C1 TALEN 101378 (synthetic (Xanthomonas TALE))", "settings": "paired with 101379"}, "[18]": {"test_system": "RPD1 TALEN 101393 (synthetic (Xanthomonas TALE))", "settings": "paired with 101389; site given 3'-5', reversed here"}, "[19]": {"test_system": "RPD1 TALEN 101391 (synthetic (Xanthomonas TALE))", "settings": "paired with 101390; site given 3'-5', reversed here"}, "[20]": {"test_system": "C1 TALEN 101370 (synthetic (Xanthomonas TALE))", "settings": "paired with 101371"}, "[21]": {"test_system": "RPD1 TALEN 101388 (synthetic (Xanthomonas TALE))", "settings": "paired with 101391; Neuro 2A"}, "[22]": {"test_system": "RPD1 TALEN 101389 (synthetic (Xanthomonas TALE))", "settings": "paired with 101393; Neuro 2A"}, "[23]": {"test_system": "C1 TALEN 101381 (synthetic (Xanthomonas TALE))", "settings": "paired with 101380; site given 3'-5', reversed here"}, "[24]": {"test_system": "RPD1 TALEN 101390 (synthetic (Xanthomonas TALE))", "settings": "paired with 101391; printed site lacks one A relative to the locus"}}, "data": [{"sequence": "ACCGCTGTGCTCCTGGC (double strand) [101234 site]", "values": [{"measurement": "activity", "setting": "[1]", "result": 10, "unit": "% NHEJ"}]}, {"sequence": "ACGCCGTGGAAAGGC (double strand) [101235 site]", "values": [{"measurement": "activity", "setting": "[2]", "result": 8.1, "unit": "% NHEJ"}]}, {"sequence": "ACGCCGTGGAAAGGCC (double strand) [101236 site]", "values": [{"measurement": "activity", "setting": "[3]", "result": 9.2, "unit": "% NHEJ"}]}, {"sequence": "ATGAGCGGCCCCGCC (double strand) [101239 site]", "values": [{"measurement": "activity", "setting": "[4]", "result": 13.1, "unit": "% NHEJ"}]}, {"sequence": "CCGCACCCCCAGCT (double strand) [101151 site]", "values": [{"measurement": "activity", "setting": "[5]", "result": 13.3, "unit": "% NHEJ"}]}, {"sequence": "CGGGGATGATCTAC (double strand) [101238 site]", "values": [{"measurement": "activity", "setting": "[6]", "result": 9.2, "unit": "% NHEJ"}]}, {"sequence": "CGGGGATGATCTACGG (double strand) [101237 site]", "values": [{"measurement": "activity", "setting": "[7]", "result": 2.5, "unit": "% NHEJ"}]}, {"sequence": "CGTTGCCCCCGCCCT (double strand) [101167 site]", "values": [{"measurement": "activity", "setting": "[8]", "result": 13.1, "unit": "% NHEJ"}]}, {"sequence": "GAATCGTTGCCCCCGC (double strand) [101240 site]", "values": [{"measurement": "activity", "setting": "[9]", "result": 11.2, "unit": "% NHEJ"}]}, {"sequence": "GAGCGGCCCCGCCCGT (double strand) [101166 site]", "values": [{"measurement": "activity", "setting": "[10]", "result": 10.7, "unit": "% NHEJ"}]}, {"sequence": "GCTCCTGGCCCTTGCA (double strand) [101233 site]", "values": [{"measurement": "activity", "setting": "[11]", "result": 13.3, "unit": "% NHEJ"}]}, {"sequence": "GGCACTCCGCACCCC (double strand) [101230 site]", "values": [{"measurement": "activity", "setting": "[12]", "result": 4.9, "unit": "% NHEJ"}]}, {"sequence": "GGCACTCCGCACCCCCA (double strand) [101231 site]", "values": [{"measurement": "activity", "setting": "[13]", "result": 10, "unit": "% NHEJ"}]}, {"sequence": "TACCGCTGTGCTCCT (double strand) [101156 site]", "values": [{"measurement": "activity", "setting": "[14]", "result": 4.9, "unit": "% NHEJ"}]}, {"sequence": "TCCTACGACGAGGAGGAT (double strand) [101380 site]", "values": [{"measurement": "activity (relative DLSSA units)", "setting": "[15]", "result": 10.3}]}, {"sequence": "TCGTCCACGCCCCTCTCT (double strand) [101371 site]", "values": [{"measurement": "activity (relative DLSSA units)", "setting": "[16]", "result": 5}]}, {"sequence": "TGAACTACCTCCGGCCC (double strand) [101378 site]", "values": [{"measurement": "activity (relative DLSSA units)", "setting": "[17]", "result": 7.1}]}, {"sequence": "TGAACTAGTGGGAGTGTT (double strand) [101393 site]", "values": [{"measurement": "activity (relative DLSSA units)", "setting": "[18]", "result": 9.9}]}, {"sequence": "TGGGAGTGTTGCAT (double strand) [101391 site]", "values": [{"measurement": "activity (relative DLSSA units)", "setting": "[19]", "result": 9.7}]}, {"sequence": "TGGGGAGGAGGGCGTGCT (double strand) [101370 site]", "values": [{"measurement": "activity (relative DLSSA units)", "setting": "[20]", "result": 5}]}, {"sequence": "TTATTTGAAGAAACT (double strand) [101388 site]", "values": [{"measurement": "activity (relative DLSSA units)", "setting": "[21]", "result": 7.6}]}, {"sequence": "TTATTTGAAGAAACTAT (double strand) [101389 site]", "values": [{"measurement": "activity (relative DLSSA units)", "setting": "[22]", "result": 9.9}]}, {"sequence": "TTGCCGAGGAGCCTGT (double strand) [101381 site]", "values": [{"measurement": "activity (relative DLSSA units)", "setting": "[23]", "result": 10.3}]}, {"sequence": "TTTGAAGAACTATATT (double strand) [101390 site]", "values": [{"measurement": "activity (relative DLSSA units)", "setting": "[24]", "result": 9.7}]}]}
